Patent publication US20130136748A1 (Ablynx, published 2013)
“And” between values parts separate entries of the source, which are not always exact repeats. Identical values can stand only once.

Columns and labels:
hHER3 full length [1] = target: T1, hHER3 full length (human, UniProt P21860 20-1342); test: cell-based or functional assay
hHER3 full length [2] = target: T1, hHER3 full length; test: cell-based or functional assay; remark: listed apart in the source
hHER3 full length [3] = target: T1, hHER3 full length; test: cell-based or functional assay; remark: listed apart in the source
[4] = target: T2, hHER3 ECD (human HER3 extracellular domain) (human, UniProt P21860 20-643); test: ELISA, coated hHER3-ECD
T2 construct: also called recombinant HER3-ECD

[5] = target: T3, cHER3ECD (Maccaca fascicularis HER3 extracellular domain) (Macaca fascicularis, UniProt P21860 20-643 (human entry)); test: ELISA, coated cHER3-ECD
T3 construct: also called cyno HER3ECD; cyno HER3-ECD
T3 chain: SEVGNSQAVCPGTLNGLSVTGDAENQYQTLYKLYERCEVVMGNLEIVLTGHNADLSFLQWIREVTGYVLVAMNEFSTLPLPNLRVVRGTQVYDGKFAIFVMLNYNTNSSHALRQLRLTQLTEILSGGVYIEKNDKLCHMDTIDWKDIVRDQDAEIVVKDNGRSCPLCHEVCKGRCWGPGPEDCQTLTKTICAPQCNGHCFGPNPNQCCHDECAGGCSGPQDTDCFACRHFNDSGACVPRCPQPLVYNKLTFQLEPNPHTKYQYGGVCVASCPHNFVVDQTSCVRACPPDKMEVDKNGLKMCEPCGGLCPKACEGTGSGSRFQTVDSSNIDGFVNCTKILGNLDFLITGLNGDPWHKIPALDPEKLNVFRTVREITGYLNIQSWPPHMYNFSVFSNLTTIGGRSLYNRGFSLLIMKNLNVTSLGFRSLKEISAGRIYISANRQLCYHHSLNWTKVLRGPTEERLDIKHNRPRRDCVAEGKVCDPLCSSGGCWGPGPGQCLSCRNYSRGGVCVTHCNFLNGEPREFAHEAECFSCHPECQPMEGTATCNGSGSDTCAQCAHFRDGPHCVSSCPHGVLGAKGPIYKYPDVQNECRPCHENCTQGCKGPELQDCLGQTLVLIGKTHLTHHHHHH

[6] = target: T2, hHER3 ECD (human HER3 extracellular …); test: SPR off rate on HER3-ECD
[7] = target: T4, human HER3-Fc (R&D Systems, 348-RB) (human, UniProt P21860 20-643); test: HRG competition alphascreen
T4 construct: Bought; also called hHER3-Fc; Fc-HER3; Fc part of the bought chimera not given, not described

[8] = target: T4, human HER3-Fc (R&D Systems, 348-RB); test: 34C07 competition alphascreen
hHER3 full length [9] = target: T1, hHER3 full length; test: FACS, 400 nM, competitor 04C07-biotin
hHER3 full length [10] = target: T1, hHER3 full length; test: FACS, 400 nM, competitor 04F10-biotin
hHER3 full length [11] = target: T1, hHER3 full length; test: FACS, 400 nM, competitor 17C08-biotin
hHER3 full length [12] = target: T1, hHER3 full length; test: FACS, 400 nM, competitor 18E08-biotin
hHER3 full length [13] = target: T1, hHER3 full length; test: FACS, 400 nM, competitor 21B02-biotin
hHER3 full length [14] = target: T1, hHER3 full length; test: FACS, 400 nM, competitor 23F05-biotin
[15] = target: T2, hHER3 ECD (human HER3 extracellular …); test: off rate on recombinant HER3-ECD, periplasmic extract
[16] = target: T4, human HER3-Fc (R&D Systems, 348-RB); test: SPR, HER3-Fc captured; heterogenous curve, main interaction (84%)

B1: 34C07 (VHH)
VHH: EVQLVESGGGLVQPGGSLGLSCVASGSIFRINAMAWYRQAPGKQRELVAEITAGGSTNYADSVKGRFTISVDNAWNTLYLQMNSLKVEDTAVYYCNLDHYTTWDRRSAYWGQGTQVTVSS
notes: c-myc, His6-tagged form as expressed; also called 34C7; HER3MS34C07
hHER3 full length [1]
  IC50, HRG1-β1 induced pHER3, MCF-7: 1.89e-08 M
  IC50, HRG1-β1 induced pHER3, MDA-MB468: 1.07e-08 M
hHER3 full length [2]
  IC50, HRG1-β1 induced pAkt, MCF-7: 4.99e-08 M
  IC50, HRG1-β1 induced pERK1/2, MCF-7: 1e-07 M
hHER3 full length [3]
  IC50 pHER3 blocking, MCF7: 2.49e-08 M
[4]
  EC50: 0.46 nM
[5]
  EC50: 0.43 nM
[6]
  koff: 0.0003 s⁻¹ and 0.00031 s⁻¹
[7]
  % inhibition: 65.2%
  IC50: 0.815 nM
[8]
  IC50: 5.5 nM
hHER3 full length [9]
  % competition: 0%
hHER3 full length [10]
  % competition: 0%
hHER3 full length [11]
  % competition: 56%
hHER3 full length [12]
  % competition: 99%
hHER3 full length [13]
  % competition: 6%
hHER3 full length [14]
  % competition: 10%
[15]
  koff: 0.00037 s⁻¹ and 0.00039 s⁻¹
[16]
  Kd: 14 nM
  kon: 18000 M⁻¹ s⁻¹
